Results reported in the supplement of paper PMC10065799, “High-throughput profiling of sequence recognition by tyrosine kinases and SH2 domains using bacterial peptide display” (eLife, 2023).
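Also: 11-residue human phosphosite peptides and single-mutation variants displayed on the E. coli surface, counted by deep sequencing, each peptide's frequency after selection divided by its frequency in the unselected input library; frequency after pTyr selection over input frequency; kinase dosed for 20-30% of maximal phosphorylation in three min.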

These sequences were tested against Fes (UniProt P07332) (assay: phosphorylation enrichment, bacterial display (enrichment ratio); higher = better substrate or ligand; peptides without Tyr show the background).
Fes, sequence (P07332 whole entry, looked up): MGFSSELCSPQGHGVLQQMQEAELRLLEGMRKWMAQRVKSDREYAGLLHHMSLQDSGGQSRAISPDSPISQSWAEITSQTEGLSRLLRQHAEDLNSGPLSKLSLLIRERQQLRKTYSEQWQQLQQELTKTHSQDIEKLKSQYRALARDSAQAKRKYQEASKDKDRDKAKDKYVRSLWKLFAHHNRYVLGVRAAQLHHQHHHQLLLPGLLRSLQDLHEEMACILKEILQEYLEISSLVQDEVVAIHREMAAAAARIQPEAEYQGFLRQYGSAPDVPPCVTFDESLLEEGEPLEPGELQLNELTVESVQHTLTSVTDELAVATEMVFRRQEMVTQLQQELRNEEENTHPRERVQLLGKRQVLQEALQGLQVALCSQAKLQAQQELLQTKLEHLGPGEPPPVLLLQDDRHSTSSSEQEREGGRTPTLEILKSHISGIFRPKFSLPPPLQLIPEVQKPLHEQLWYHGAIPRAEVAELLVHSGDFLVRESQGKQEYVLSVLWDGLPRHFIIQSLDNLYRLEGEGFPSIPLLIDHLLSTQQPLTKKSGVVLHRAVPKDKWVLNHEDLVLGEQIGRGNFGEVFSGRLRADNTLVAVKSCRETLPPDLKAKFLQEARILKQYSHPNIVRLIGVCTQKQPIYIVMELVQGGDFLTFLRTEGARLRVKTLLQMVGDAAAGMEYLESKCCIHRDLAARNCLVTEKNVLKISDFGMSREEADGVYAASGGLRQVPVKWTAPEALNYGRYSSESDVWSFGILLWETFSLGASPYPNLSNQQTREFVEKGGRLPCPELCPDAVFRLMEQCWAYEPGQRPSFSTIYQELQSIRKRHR
Sequence CVAARYMDVKG [WFIKKN2_Y93] has a phosphorylation enrichment of 0.887. Sequence KSIQLYDTPYE [SHB_Y297_G293S] has a phosphorylation enrichment of 1.07. LVSCAYQMARG [FGFR1_Y605_V607M] gave a phosphorylation enrichment of 2.32. LNFNEYFRDLN [HPRT1_Y198_D194N_YF] showed a phosphorylation enrichment of 2.1. FMRGMYFRMTD [PLA2G6_Y541_K545T_YF] was tested, and the phosphorylation enrichment was 1.2. Sequence HRFAAYFQQGD [GPI_Y351] has a phosphorylation enrichment of 1.79. LNLKDYNLVGG [GNAQ_Y356_E355D] was tested, and the phosphorylation enrichment was 0.665. Sequence FDNPVYQKTTE [LDLR_Y828] has a phosphorylation enrichment of 0.864. NHYKRYNLCAE [PTEN_Y68_I67R] showed a phosphorylation enrichment of 0.82. DFLEKYFKFGS [NNMT_Y24_YF] was tested, and the phosphorylation enrichment was 1.41. DLLNSYIENEG [HSPA4L_Y600] showed a phosphorylation enrichment of 0.999. For KLKRSYPSPDI [USP8_Y717_S718P], the phosphorylation enrichment was 0.546. RHFSSYSQMEN [PKP1_Y120_R116H] gave a phosphorylation enrichment of 1.

Each sequence was assayed on c-Abl (mouse) in the same assay as above.
Sequence CVAARYMDVKG [WFIKKN2_Y93] has a phosphorylation enrichment of 0.56. Sequence KSIQLYDTPYE [SHB_Y297_G293S] has a phosphorylation enrichment of 1.03. Sequence LVSCAYQMARG [FGFR1_Y605_V607M] has a phosphorylation enrichment of 0.998. With LNFNEYFRDLN [HPRT1_Y198_D194N_YF] the phosphorylation enrichment was 2.15. With FMRGMYFRMTD [PLA2G6_Y541_K545T_YF] the phosphorylation enrichment was 0.715. HRFAAYFQQGD [GPI_Y351] was tested, and the phosphorylation enrichment was 0.979. Work on LNLKDYNLVGG [GNAQ_Y356_E355D] yielded a phosphorylation enrichment of 0.465. Work on FDNPVYQKTTE [LDLR_Y828] yielded a phosphorylation enrichment of 0.438. For NHYKRYNLCAE [PTEN_Y68_I67R], the phosphorylation enrichment was 0.709. In the case of DFLEKYFKFGS [NNMT_Y24_YF], the phosphorylation enrichment is reported as 0.936. In the case of DLLNSYIENEG [HSPA4L_Y600], the phosphorylation enrichment is reported as 0.585. For KLKRSYPSPDI [USP8_Y717_S718P], the phosphorylation enrichment was 0.547. In the case of RHFSSYSQMEN [PKP1_Y120_R116H], the phosphorylation enrichment is reported as 0.413.

What follows are sequences tested against Hck (UniProt P08631) in the same assay as above.
Hck, sequence (P08631 whole entry, looked up): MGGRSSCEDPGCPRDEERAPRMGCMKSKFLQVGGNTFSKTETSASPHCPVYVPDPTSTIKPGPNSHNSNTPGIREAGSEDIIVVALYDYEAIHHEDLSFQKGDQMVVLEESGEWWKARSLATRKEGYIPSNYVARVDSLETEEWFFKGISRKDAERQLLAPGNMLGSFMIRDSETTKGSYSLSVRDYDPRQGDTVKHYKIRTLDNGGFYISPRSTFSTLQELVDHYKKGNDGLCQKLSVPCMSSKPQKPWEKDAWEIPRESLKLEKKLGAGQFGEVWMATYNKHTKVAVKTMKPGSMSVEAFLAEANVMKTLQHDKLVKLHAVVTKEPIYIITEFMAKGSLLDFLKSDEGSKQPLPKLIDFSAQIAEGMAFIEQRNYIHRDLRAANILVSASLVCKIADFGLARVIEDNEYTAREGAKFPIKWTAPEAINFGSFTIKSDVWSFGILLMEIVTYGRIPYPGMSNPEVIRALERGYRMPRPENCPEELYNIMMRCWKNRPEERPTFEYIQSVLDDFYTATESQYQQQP
Sequence CVAARYMDVKG [WFIKKN2_Y93] has a phosphorylation enrichment of 0.43. KSIQLYDTPYE [SHB_Y297_G293S] was tested, and the phosphorylation enrichment was 1.76. LVSCAYQMARG [FGFR1_Y605_V607M] gave a phosphorylation enrichment of 0.741. For LNFNEYFRDLN [HPRT1_Y198_D194N_YF], the phosphorylation enrichment was 0.99. Work on FMRGMYFRMTD [PLA2G6_Y541_K545T_YF] yielded a phosphorylation enrichment of 0.513. HRFAAYFQQGD [GPI_Y351] showed a phosphorylation enrichment of 0.501. LNLKDYNLVGG [GNAQ_Y356_E355D] gave a phosphorylation enrichment of 0.538. With FDNPVYQKTTE [LDLR_Y828] the phosphorylation enrichment was 0.933. NHYKRYNLCAE [PTEN_Y68_I67R] gave a phosphorylation enrichment of 0.542. With DFLEKYFKFGS [NNMT_Y24_YF] the phosphorylation enrichment was 0.521. For DLLNSYIENEG [HSPA4L_Y600], the phosphorylation enrichment was 0.484. With KLKRSYPSPDI [USP8_Y717_S718P] the phosphorylation enrichment was 0.381. RHFSSYSQMEN [PKP1_Y120_R116H] gave a phosphorylation enrichment of 0.551.

Each sequence was assayed against EPHB1 (UniProt P54762) in the same assay as above.
EPHB1, sequence (P54762 whole entry, looked up): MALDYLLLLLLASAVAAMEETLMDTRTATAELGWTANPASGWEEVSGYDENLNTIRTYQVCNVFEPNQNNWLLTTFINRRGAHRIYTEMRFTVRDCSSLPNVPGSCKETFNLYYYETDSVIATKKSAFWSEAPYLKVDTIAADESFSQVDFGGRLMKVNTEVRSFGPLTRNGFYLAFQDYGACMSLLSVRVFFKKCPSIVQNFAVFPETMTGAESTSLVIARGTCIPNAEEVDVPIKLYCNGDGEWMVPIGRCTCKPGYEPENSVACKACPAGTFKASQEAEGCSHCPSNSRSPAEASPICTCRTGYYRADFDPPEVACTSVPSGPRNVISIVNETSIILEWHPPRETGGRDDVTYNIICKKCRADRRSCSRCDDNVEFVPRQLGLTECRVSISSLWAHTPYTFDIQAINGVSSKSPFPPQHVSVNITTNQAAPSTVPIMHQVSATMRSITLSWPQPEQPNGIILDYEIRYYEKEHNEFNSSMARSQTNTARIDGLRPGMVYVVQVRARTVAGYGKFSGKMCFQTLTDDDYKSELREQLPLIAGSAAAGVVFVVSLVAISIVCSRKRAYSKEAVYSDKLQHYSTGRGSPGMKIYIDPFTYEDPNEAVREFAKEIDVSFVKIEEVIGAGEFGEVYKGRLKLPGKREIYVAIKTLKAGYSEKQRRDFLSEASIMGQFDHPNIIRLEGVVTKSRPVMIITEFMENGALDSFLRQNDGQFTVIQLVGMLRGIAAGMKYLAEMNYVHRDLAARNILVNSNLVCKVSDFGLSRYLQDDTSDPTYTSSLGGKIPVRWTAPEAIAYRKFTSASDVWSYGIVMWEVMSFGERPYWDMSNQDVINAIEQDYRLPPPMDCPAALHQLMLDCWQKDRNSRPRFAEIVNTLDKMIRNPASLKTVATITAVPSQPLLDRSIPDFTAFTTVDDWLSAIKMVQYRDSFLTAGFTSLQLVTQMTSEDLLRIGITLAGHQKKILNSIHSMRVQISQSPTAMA
Work on CVAARYMDVKG [WFIKKN2_Y93] yielded a phosphorylation enrichment of 0.535. Work on KSIQLYDTPYE [SHB_Y297_G293S] yielded a phosphorylation enrichment of 11.6. With LVSCAYQMARG [FGFR1_Y605_V607M] the phosphorylation enrichment was 0.578. Work on LNFNEYFRDLN [HPRT1_Y198_D194N_YF] yielded a phosphorylation enrichment of 1.23. FMRGMYFRMTD [PLA2G6_Y541_K545T_YF] was tested, and the phosphorylation enrichment was 0.698. Sequence HRFAAYFQQGD [GPI_Y351] has a phosphorylation enrichment of 0.88. Work on LNLKDYNLVGG [GNAQ_Y356_E355D] yielded a phosphorylation enrichment of 0.491. In the case of FDNPVYQKTTE [LDLR_Y828], the phosphorylation enrichment is reported as 0.605. In the case of NHYKRYNLCAE [PTEN_Y68_I67R], the phosphorylation enrichment is reported as 0.467. With DFLEKYFKFGS [NNMT_Y24_YF] the phosphorylation enrichment was 0.525. In the case of DLLNSYIENEG [HSPA4L_Y600], the phosphorylation enrichment is reported as 0.573. In the case of KLKRSYPSPDI [USP8_Y717_S718P], the phosphorylation enrichment is reported as 0.374. Work on RHFSSYSQMEN [PKP1_Y120_R116H] yielded a phosphorylation enrichment of 0.632.

Each sequence was assayed against Fyn (UniProt P06241) in the same assay as above.
Fyn, sequence (P06241 whole entry, looked up): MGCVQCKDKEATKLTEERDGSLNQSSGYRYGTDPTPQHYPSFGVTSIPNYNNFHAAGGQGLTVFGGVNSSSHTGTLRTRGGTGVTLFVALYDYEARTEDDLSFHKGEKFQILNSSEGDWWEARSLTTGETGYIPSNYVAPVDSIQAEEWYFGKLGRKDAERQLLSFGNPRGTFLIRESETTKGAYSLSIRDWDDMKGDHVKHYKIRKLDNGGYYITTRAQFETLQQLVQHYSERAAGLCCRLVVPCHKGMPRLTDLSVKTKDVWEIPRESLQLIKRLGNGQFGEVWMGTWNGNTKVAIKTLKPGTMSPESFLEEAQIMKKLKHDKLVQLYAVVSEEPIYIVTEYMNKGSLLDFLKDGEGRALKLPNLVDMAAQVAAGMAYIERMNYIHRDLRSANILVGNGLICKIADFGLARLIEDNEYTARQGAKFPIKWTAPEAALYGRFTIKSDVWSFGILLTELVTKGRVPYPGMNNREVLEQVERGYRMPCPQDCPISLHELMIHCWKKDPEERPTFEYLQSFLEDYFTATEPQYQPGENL
CVAARYMDVKG [WFIKKN2_Y93] was tested, and the phosphorylation enrichment was 0.419. Sequence KSIQLYDTPYE [SHB_Y297_G293S] has a phosphorylation enrichment of 0.827. For LVSCAYQMARG [FGFR1_Y605_V607M], the phosphorylation enrichment was 0.589. LNFNEYFRDLN [HPRT1_Y198_D194N_YF] showed a phosphorylation enrichment of 0.866. FMRGMYFRMTD [PLA2G6_Y541_K545T_YF] showed a phosphorylation enrichment of 0.434. HRFAAYFQQGD [GPI_Y351] showed a phosphorylation enrichment of 0.633. LNLKDYNLVGG [GNAQ_Y356_E355D] gave a phosphorylation enrichment of 0.481. FDNPVYQKTTE [LDLR_Y828] was tested, and the phosphorylation enrichment was 0.759. For NHYKRYNLCAE [PTEN_Y68_I67R], the phosphorylation enrichment was 0.512. DFLEKYFKFGS [NNMT_Y24_YF] was tested, and the phosphorylation enrichment was 0.437. DLLNSYIENEG [HSPA4L_Y600] was tested, and the phosphorylation enrichment was 0.53. Sequence KLKRSYPSPDI [USP8_Y717_S718P] has a phosphorylation enrichment of 0.374. RHFSSYSQMEN [PKP1_Y120_R116H] showed a phosphorylation enrichment of 0.551.

These sequences were tested against Jak2 (UniProt O60674) in the same assay as above.
Jak2, sequence (O60674 whole entry, looked up): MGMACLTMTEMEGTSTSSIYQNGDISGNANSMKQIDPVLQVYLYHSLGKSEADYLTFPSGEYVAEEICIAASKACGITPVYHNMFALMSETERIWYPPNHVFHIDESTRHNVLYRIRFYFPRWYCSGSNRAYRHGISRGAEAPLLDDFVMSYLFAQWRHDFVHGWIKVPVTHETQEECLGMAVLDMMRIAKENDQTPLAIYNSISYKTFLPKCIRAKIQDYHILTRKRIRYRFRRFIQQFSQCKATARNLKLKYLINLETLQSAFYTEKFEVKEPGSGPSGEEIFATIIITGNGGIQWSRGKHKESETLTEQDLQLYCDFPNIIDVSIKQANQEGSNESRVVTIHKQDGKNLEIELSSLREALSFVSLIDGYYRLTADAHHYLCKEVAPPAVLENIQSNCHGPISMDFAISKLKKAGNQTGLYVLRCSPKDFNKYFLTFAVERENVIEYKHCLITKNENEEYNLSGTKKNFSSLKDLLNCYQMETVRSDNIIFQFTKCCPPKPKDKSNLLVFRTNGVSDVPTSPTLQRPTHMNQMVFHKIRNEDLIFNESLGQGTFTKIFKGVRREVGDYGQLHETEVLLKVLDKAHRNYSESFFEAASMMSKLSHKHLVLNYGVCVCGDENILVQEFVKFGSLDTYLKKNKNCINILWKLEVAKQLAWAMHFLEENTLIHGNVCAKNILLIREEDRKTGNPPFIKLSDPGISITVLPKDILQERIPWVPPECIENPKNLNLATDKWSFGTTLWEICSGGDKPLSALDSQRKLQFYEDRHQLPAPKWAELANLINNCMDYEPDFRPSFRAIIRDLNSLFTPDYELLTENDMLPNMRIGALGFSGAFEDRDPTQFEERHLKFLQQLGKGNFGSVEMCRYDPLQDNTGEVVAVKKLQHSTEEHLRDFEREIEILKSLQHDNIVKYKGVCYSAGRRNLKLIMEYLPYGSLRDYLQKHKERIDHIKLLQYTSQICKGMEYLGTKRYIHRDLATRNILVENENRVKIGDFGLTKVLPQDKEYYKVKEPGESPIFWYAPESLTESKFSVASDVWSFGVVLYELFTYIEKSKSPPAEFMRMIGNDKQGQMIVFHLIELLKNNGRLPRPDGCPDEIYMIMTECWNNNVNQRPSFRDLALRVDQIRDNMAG
For CVAARYMDVKG [WFIKKN2_Y93], the phosphorylation enrichment was 0.696. Work on KSIQLYDTPYE [SHB_Y297_G293S] yielded a phosphorylation enrichment of 0.921. In the case of LVSCAYQMARG [FGFR1_Y605_V607M], the phosphorylation enrichment is reported as 0.937. Work on LNFNEYFRDLN [HPRT1_Y198_D194N_YF] yielded a phosphorylation enrichment of 2.25. FMRGMYFRMTD [PLA2G6_Y541_K545T_YF] showed a phosphorylation enrichment of 1.39. In the case of HRFAAYFQQGD [GPI_Y351], the phosphorylation enrichment is reported as 1.59. With LNLKDYNLVGG [GNAQ_Y356_E355D] the phosphorylation enrichment was 0.508. FDNPVYQKTTE [LDLR_Y828] was tested, and the phosphorylation enrichment was 0.549. Sequence NHYKRYNLCAE [PTEN_Y68_I67R] has a phosphorylation enrichment of 0.744. With DFLEKYFKFGS [NNMT_Y24_YF] the phosphorylation enrichment was 1.8. For DLLNSYIENEG [HSPA4L_Y600], the phosphorylation enrichment was 1.17. Sequence KLKRSYPSPDI [USP8_Y717_S718P] has a phosphorylation enrichment of 0.58. Sequence RHFSSYSQMEN [PKP1_Y120_R116H] has a phosphorylation enrichment of 0.545.

The sequences below were run against FGFR1 (UniProt P11362) in the same assay as above.
FGFR1, sequence (P11362 whole entry, looked up): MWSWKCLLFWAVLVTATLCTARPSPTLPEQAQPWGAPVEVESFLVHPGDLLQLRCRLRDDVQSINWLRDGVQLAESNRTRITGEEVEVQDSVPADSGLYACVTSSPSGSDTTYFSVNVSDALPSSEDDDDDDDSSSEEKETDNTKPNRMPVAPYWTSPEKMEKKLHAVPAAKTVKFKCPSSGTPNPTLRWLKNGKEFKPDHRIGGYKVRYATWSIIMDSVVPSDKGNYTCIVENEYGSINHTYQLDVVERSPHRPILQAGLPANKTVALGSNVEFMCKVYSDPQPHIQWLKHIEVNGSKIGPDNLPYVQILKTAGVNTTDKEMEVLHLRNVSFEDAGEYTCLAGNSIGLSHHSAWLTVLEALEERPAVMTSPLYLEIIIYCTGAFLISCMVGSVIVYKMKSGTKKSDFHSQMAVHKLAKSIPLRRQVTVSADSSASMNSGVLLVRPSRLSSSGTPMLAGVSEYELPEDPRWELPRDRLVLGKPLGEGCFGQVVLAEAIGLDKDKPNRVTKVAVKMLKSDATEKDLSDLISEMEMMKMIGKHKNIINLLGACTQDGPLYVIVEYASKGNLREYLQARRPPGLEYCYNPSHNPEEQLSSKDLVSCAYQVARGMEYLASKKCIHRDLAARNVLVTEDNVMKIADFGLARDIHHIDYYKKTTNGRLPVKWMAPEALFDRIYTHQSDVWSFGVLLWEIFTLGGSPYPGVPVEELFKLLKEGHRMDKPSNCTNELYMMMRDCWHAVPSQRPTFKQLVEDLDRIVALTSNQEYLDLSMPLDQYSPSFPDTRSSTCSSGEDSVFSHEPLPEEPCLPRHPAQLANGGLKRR
CVAARYMDVKG [WFIKKN2_Y93] gave a phosphorylation enrichment of 0.445. Sequence KSIQLYDTPYE [SHB_Y297_G293S] has a phosphorylation enrichment of 0.521. With LVSCAYQMARG [FGFR1_Y605_V607M] the phosphorylation enrichment was 0.66. Work on LNFNEYFRDLN [HPRT1_Y198_D194N_YF] yielded a phosphorylation enrichment of 1.18. Work on FMRGMYFRMTD [PLA2G6_Y541_K545T_YF] yielded a phosphorylation enrichment of 0.496. In the case of HRFAAYFQQGD [GPI_Y351], the phosphorylation enrichment is reported as 0.962. Work on LNLKDYNLVGG [GNAQ_Y356_E355D] yielded a phosphorylation enrichment of 0.523. Work on FDNPVYQKTTE [LDLR_Y828] yielded a phosphorylation enrichment of 0.5. For NHYKRYNLCAE [PTEN_Y68_I67R], the phosphorylation enrichment was 0.557. DFLEKYFKFGS [NNMT_Y24_YF] was tested, and the phosphorylation enrichment was 0.491. In the case of DLLNSYIENEG [HSPA4L_Y600], the phosphorylation enrichment is reported as 0.528. Sequence KLKRSYPSPDI [USP8_Y717_S718P] has a phosphorylation enrichment of 0.352. In the case of RHFSSYSQMEN [PKP1_Y120_R116H], the phosphorylation enrichment is reported as 0.776.

These sequences were tested on Fer (mouse) in the same assay as above.
Work on CVAARYMDVKG [WFIKKN2_Y93] yielded a phosphorylation enrichment of 0.442. In the case of KSIQLYDTPYE [SHB_Y297_G293S], the phosphorylation enrichment is reported as 3.02. With LVSCAYQMARG [FGFR1_Y605_V607M] the phosphorylation enrichment was 0.824. In the case of LNFNEYFRDLN [HPRT1_Y198_D194N_YF], the phosphorylation enrichment is reported as 1.03. FMRGMYFRMTD [PLA2G6_Y541_K545T_YF] was tested, and the phosphorylation enrichment was 0.506. With HRFAAYFQQGD [GPI_Y351] the phosphorylation enrichment was 0.496. For LNLKDYNLVGG [GNAQ_Y356_E355D], the phosphorylation enrichment was 0.464. FDNPVYQKTTE [LDLR_Y828] showed a phosphorylation enrichment of 0.424. With NHYKRYNLCAE [PTEN_Y68_I67R] the phosphorylation enrichment was 0.488. DFLEKYFKFGS [NNMT_Y24_YF] gave a phosphorylation enrichment of 0.514. Work on DLLNSYIENEG [HSPA4L_Y600] yielded a phosphorylation enrichment of 0.545. KLKRSYPSPDI [USP8_Y717_S718P] gave a phosphorylation enrichment of 0.339. RHFSSYSQMEN [PKP1_Y120_R116H] gave a phosphorylation enrichment of 0.603.
